Data reported in publication PMC4775916 (Antimicrobial Agents and Chemotherapy, 2016).
Values joined by “and” are separate entries in the source; they are usually repeats but may differ in a detail not shown here. Identical values can stand only once.

How the values were obtained:
[1] = target: T1, VIM-1 (Pseudomonas aeruginosa, UniProt A0A0F7KYQ8); settings: previous studies ref Franceschini et al. (4), cited from earlier work
T1 construct: The N- and C- terminal residues of the mature enzymes are labelled 26; made in house

[2] = test system: VIM-2; parameters: method as in Poirel et al. (5); settings: previous studies ref Poirel et al. (5), cited from earlier work
[3] = test system: VIM-5; parameters: method as in Garcar et al. (6); settings: previous studies ref Garcar et al. (6), cited from earlier work
[4] = target: T2, VIM-2 (Escherichia coli, UniProt Q5U7L7); format: biochemical; settings: 50 mM HEPES pH 7.2; apparent for ampicillin and ceftazidime
T2 construct: His6 (N, cleaved yes); made in house
Method: (§1) The hydrolysis of a representative panel of β-lactam substrates was monitored at their respective absorbance wavelengths. The wavelengths and extinction coefficients used were previously described ([34]). The assays were carried out using 50 mM HEPES buffer (pH 7.2) supplemented with 1 μg/ml bovine serum albumin (BSA), 1 μM ZnSO4, and 0.01% Triton X-100. In the case of VIM-1, C-terminally His6-tagged VIM-1 was used for kinetic analyses. Note that no differences were observed between the activities of untagged VIM-1 and C-terminally His6-tagged VIM-1 for the selected antibiotics (data not shown). The initial rates were obtained from the changes in absorbance at various substrate concentrations. Steady-state kinetic parameters (Km and kcat) were determined by fitting the initial velocity data to the Michaelis-Menten equation using GraphPad Prism 5.01 software (see Table S4 in the supplemental material).

[5] = target: T3, VIM-5 (Pseudomonas aeruginosa, UniProt A0A0F7KYQ8, A128K/E202A/H201L/K257T/S205R); experiment: Steady-state kinetics of β-lactam substrate hydrolysis; format: biochemical; settings: 50 mM HEPES pH 7.2, apparent for ampicillin and ceftazidime
T3 construct: His6 with HRV3C cleavage site (pET-28a) (N, cleaved yes); made in house; host or cells: E. coli BL21(DE3)
Method: as §1

[6] = target: T1, VIM-1; experiment: as above; format: biochemical
Method: as §1

[7] = target: T4, VIM-38 (Pseudomonas aeruginosa, UniProt A0A0F7KYQ8, A128K/A265V/E202A/H201L/K257T/S205R); experiment: as above; format: biochemical; settings: 50 mM HEPES pH 7.2, apparent for ampicillin and ceftazidime
T4 construct: The N- and C- terminal residues of the mature enzymes are labelled 26; His6 with HRV3C cleavage site (pET-28a) (N, cleaved yes); made in house; host or cells: E. coli BL21(DE3)
Method: as §1

[8] = target: T5, VIM-4 (Pseudomonas aeruginosa, UniProt A0A0F7KYQ8, S205R); experiment: Inhibition of enzyme-mediated nitrocefin hydrolysis; format: biochemical; settings: read-out: IC50 VIM-4 (H224, R228); note: 10 min preincubation
T5 construct: His6 (N, cleaved yes); made in house
Method: (§2) Inhibitors were prepared as reported previously ([36], [41]). Enzyme-mediated hydrolysis of nitrocefin was monitored by determining the changes in absorbance at 495 nm, as previously described ([36], [37]). Residual activities were first determined at a 100 μM inhibitor concentration. […] The residual activities were obtained at increasing inhibitor concentrations (0.2 to 2,000 μM); the data were analyzed using GraphPad Prism 5.01 software.

[9] = target: T3, VIM-5; experiment: as above; format: biochemical
Method: as §2

[10] = target: T2, VIM-2; experiment: as above; format: biochemical; settings: read-out: IC50 VIM-2 (Y224, R228)
Method: as §2

[11] = target: T1, VIM-1; experiment: as above; format: biochemical; settings: read-out: IC50 VIM-1 (H224, S228)
Method: as §2

[12] = target: T4, VIM-38; experiment: as above; format: biochemical
Method: as §2

[13] = test system: O=C(Cc1cccs1)N[C@@H]1C(=O)N2C(C(=O)O)=C(/C=C/c3ccc([N+](=O)[O-])cc3[N+](=O)[O-])CS[C@H]12; experiment: Nitrocefin hydrolysis kinetics before thermal denaturation and after refolding; format: biochemical; settings: other: nitrocefin hydrolysis
Method: Circular dichroism (CD) analyses were carried out using a Chirascan CD spectrophotometer (Applied Photophysics) equipped with a Peltier temperature-controlled cell holder. CD measurements were collected in the range of 185 to 260 nm; spectra were baseline corrected and smoothed using a Savitzky-Golay filter. Data were normalized at 207 nm to account for differences in protein concentrations ([38]), and the estimation of secondary structure content was performed with Dichro Web ([39]) using the CONTIN Analysis Programme (reference set 6) ([40]). Melting temperatures (Tm) of the recombinant enzymes were determined by monitoring temperature-induced changes in the CD signal at 222 nm. The temperature was increased by 1°C per min, and the CD signal was recorded at temperatures ranging from 25°C to 92°C. The samples were then cooled from 92°C to 25°C at the same rate, and a CD spectrum of the refolded proteins was determined. The activity of the enzymes was recorded before thermal denaturation and after refolding by monitoring nitrocefin hydrolysis. The thermal denaturation data were fitted to a Boltzmann sigmoidal curve by using GraphPad Prism 5.0 software. CD spectra and thermal denaturation curves are shown in Fig. 2 and in Tables S2 and S3 in the supplemental material.

[14] = test system: CO[C@@]1(NC(=O)Cc2cccs2)C(=O)N2C(C(=O)O)=C(COC(N)=O)CS[C@@H]21; experiment: Steady-state kinetics of β-lactam substrate hydrolysis; format: biochemical; settings: other: C-terminally His6-tagged VIM-1, 50 mM HEPES pH 7.2, apparent for ampicillin and ceftazidime
Method: as §1

[15] = test system: C[C@@H](O)[C@H]1C(=O)N2C(C(=O)O)=C(SCCN=CN)C[C@H]12; experiment: as above; format: biochemical; settings: other: C-terminally His6-tagged VIM-1, 50 mM HEPES pH 7.2, apparent for ampicillin and ceftazidime
Method: as §1

[16] = test system: C[C@@H](O)[C@H]1C(=O)N2C(C(=O)O)=C(S[C@@H]3CN[C@H](C(=O)N(C)C)C3)[C@H](C)[C@H]12; experiment: as above; format: biochemical; settings: other: C-terminally His6-tagged VIM-1, 50 mM HEPES pH 7.2, apparent for ampicillin and ceftazidime
Method: as §1

[17] = test system: CC(C)(O/N=C(\C(=O)N[C@@H]1C(=O)N2C(C(=O)[O-])=C(C[n+]3ccccc3)CS[C@H]12)c1csc(N)n1)C(=O)O; experiment: as above; format: biochemical; settings: other: C-terminally His6-tagged VIM-1, 50 mM HEPES pH 7.2, apparent for ampicillin and ceftazidime
Method: as §1

[18] = test system: CC(=O)OCC1=C(C(=O)O)N2C(=O)[C@@H](NC(=O)Cc3cccs3)[C@H]2SC1; experiment: as above; format: biochemical; settings: other: C-terminally His6-tagged VIM-1, 50 mM HEPES pH 7.2, apparent for ampicillin and ceftazidime
Method: as §1

[19] = test system: O=C(Cc1cccs1)N[C@@H]1C(=O)N2C(C(=O)O)=C(/C=C/c3ccc([N+](=O)[O-])cc3[N+](=O)[O-])CS[C@H]12; experiment: as above; format: biochemical; settings: other: C-terminally His6-tagged VIM-1, 50 mM HEPES pH 7.2, apparent for ampicillin and ceftazidime
Method: as §1

[20] = test system: CO[C@@]1(NC(=O)Cc2cccs2)C(=O)N2C(C(=O)O)=C(COC(N)=O)CS[C@@H]21; experiment: purified protein, by the assay type; format: biochemical; settings: other: 50 mM HEPES pH 7.2, apparent for ampicillin and ceftazidime
Method: as §1

[21] = test system: C[C@@H](O)[C@H]1C(=O)N2C(C(=O)O)=C(SCCN=CN)C[C@H]12; experiment: purified protein, by the assay type; format: biochemical; settings: other: 50 mM HEPES pH 7.2, apparent for ampicillin and ceftazidime
Method: as §1

[22] = test system: C[C@@H](O)[C@H]1C(=O)N2C(C(=O)O)=C(S[C@@H]3CN[C@H](C(=O)N(C)C)C3)[C@H](C)[C@H]12; experiment: purified protein, by the assay type; format: biochemical; settings: other: 50 mM HEPES pH 7.2, apparent for ampicillin and ceftazidime
Method: as §1

[23] = test system: CC(C)(O/N=C(\C(=O)N[C@@H]1C(=O)N2C(C(=O)[O-])=C(C[n+]3ccccc3)CS[C@H]12)c1csc(N)n1)C(=O)O; experiment: purified protein, by the assay type; format: biochemical; settings: other: 50 mM HEPES pH 7.2, apparent for ampicillin and ceftazidime
Method: as §1

[24] = test system: CC(=O)OCC1=C(C(=O)O)N2C(=O)[C@@H](NC(=O)Cc3cccs3)[C@H]2SC1; experiment: purified protein, by the assay type; format: biochemical; settings: other: 50 mM HEPES pH 7.2, apparent for ampicillin and ceftazidime
Method: as §1

[25] = test system: O=C(Cc1cccs1)N[C@@H]1C(=O)N2C(C(=O)O)=C(/C=C/c3ccc([N+](=O)[O-])cc3[N+](=O)[O-])CS[C@H]12; experiment: purified protein, by the assay type; format: biochemical; settings: other: 50 mM HEPES pH 7.2, apparent for ampicillin and ceftazidime
Method: as §1

## C[C@@H](O)[C@H]1C(=O)N2C(C(=O)O)=C(S[C@@H]3CN[C@H](C(=O)N(C)C)C3)[C@H](C)[C@H]12 [Meropenem]
[1]
  kcat VIM-1 (previous study): 13 s⁻¹
[1]; read-out: Km VIM-1 (previous study)
  Km: 48 µM
[2]
  kcat VIM-2 (previous study): 1.4 s⁻¹
[2]; read-out: Km VIM-2 (previous study)
  Km: 5 µM
[3]
  kcat VIM-5 (previous study): 2.4 s⁻¹
[3]; read-out: Km VIM-5 (previous study)
  Km: 49 µM
[4]
  kcat VIM-2: 7 s⁻¹
[5]
  kcat VIM-5: 16 s⁻¹ and 20 s⁻¹
[5]; read-out: Mean Km ± SD VIM-5
  Km: 70 ± 10 µM
[6]; C-terminally His6-tagged VIM-1, 50 mM HEPES pH 7.2, apparent for ampicillin and ceftazidime
  kcat VIM-1: 50 s⁻¹
[6]; VIM-1 versus VIM-2
  Km for VIM-1 fold higher than that for VIM-2: > 6 fold
  kcat for VIM-1 fold higher than those for VIM-2: > 7 fold
[7]
  kcat VIM-38: 10 s⁻¹
[7]; read-out: Mean Km ± SD VIM-38
  Km: 30 ± 4 µM

## O=C(N[C@H](Cc1c[nH]c2ccccc12)C(=O)O)c1ncccc1O [compound 3]
[8]
  IC50: 125 µM
[9]
  IC50: 50 µM
[10]
  IC50: 100 µM
[11]
  IC50: 50 µM
[12]
  IC50: 50 µM

## VIM-1 (Pseudomonas aeruginosa PAO1)
[13]; after refolding
  Km: 26 ± 3 µM
[13]; pre-heating
  Km: 20 ± 2 µM
  kcat: 7 s⁻¹
  kcat/Km: 300000 M⁻¹ s⁻¹
[14]
  Km: 170 ± 50 µM
  kcat: 30 s⁻¹
  kcat/Km: 200000 M⁻¹ s⁻¹
[15]
  Km: 60 ± 10 µM
  kcat: 30 s⁻¹
  kcat/Km: 500000 M⁻¹ s⁻¹
[16]
  Km: 130 ± 20 µM
  kcat: 50 s⁻¹
  kcat/Km: 400000 M⁻¹ s⁻¹
[17]
  Km: 180 ± 60 µM
  kcat: 3 s⁻¹
  kcat/Km: 20000 M⁻¹ s⁻¹
[18]
  Km: 140 ± 10 µM
  kcat: 450 s⁻¹
  kcat/Km: 3.2e+06 M⁻¹ s⁻¹
[19]
  Km: 15 ± 1 µM
  kcat: 130 s⁻¹
  kcat/Km: 8.7e+06 M⁻¹ s⁻¹

## VIM-2 (Escherichia coli)
[13]; after refolding
  Km: 15 ± 1 µM
  kcat: 130 s⁻¹
  kcat/Km: 8.7e+06 M⁻¹ s⁻¹
[20]
  Km: 40 ± 10 µM
  kcat: 50 s⁻¹
  kcat/Km: 1.3e+06 M⁻¹ s⁻¹
[21]
  Km: 33 ± 4 µM and 30 ± 4 µM
  kcat: 95 s⁻¹ and 100 s⁻¹
  kcat/Km: 3.3e+06 M⁻¹ s⁻¹
[22]
  Km: 20 ± 4 µM
  kcat: 7 s⁻¹
  kcat/Km: 300000 M⁻¹ s⁻¹
[23]
  Km: 120 ± 20 µM
  kcat: 2 s⁻¹
  kcat/Km: 20000 M⁻¹ s⁻¹
[24]
  Km: 50 ± 6 µM
  kcat: 210 s⁻¹
  kcat/Km: 4.2e+06 M⁻¹ s⁻¹
[25]
  Km: 50 ± 5 µM
  kcat: 510 s⁻¹
  kcat/Km: 1.02e+07 M⁻¹ s⁻¹
